Results as given in publication PMC7287101.

Biological target: Spt6 (UniProt Q9W420)
Assay: anti-Spt6 co-IP, FLAG blot, 150 mM wash
Details: reference: wild type dCENP-A-FLAG; sites S20,S75,S77

dCENP-A (CID) (from UniProt Q9V6Q2) S20/S75/S77A
binding against the reference: stronger
